Reference: paper PMC2911444 (Journal of molecular biology, 2008)

Tests used:
Experiment in all cases: cryo-EM structure
[1] = biological target: pentameric vertex complex of CIV (vertex protein) (Chilo iridescent virus (CIV))
[2] = biological target: zip protein (CIV minor capsid protein) (Chilo iridescent virus (CIV))
cryo-EM structure = biological target: the molecule itself

## pentameric vertex complex of CIV (vertex protein) (natural protein)
[1]
  stoichiometry N: 5

## zip protein (CIV minor capsid protein) (natural protein)
[2]
  stoichiometry N: 2

B1: P50, the CIV major capsid protein (MCP) (natural protein)
chain: MSISSSNVTSGFIDIATKDEIEKYMYGGKTSTAYFVRETRKATWFTQVPVSLTRANGSANFGSEWSASISRAGDYLLYTWLRVRIPSVTLLSTNQFGANGRIRWCRNFMHNLIRECSITFNDLVAARFDHYHLDFWAAFTTPASKAVGYDNMIGNVSALIQPQPVPVAPATVSLPEADLNLPLPFFFSRDSGVALPTAALPYNEMRINFQFHDWQRLLILDNIAAVASQTVVPVVGATSDIATAPVLHHGTVWGNYAIVSNEERRRMGCSVRDILVEQVQTAPRHVWNPTTNDAPNYDIRFSHAIKALFFAVRNTTFSNQPSNYTTASPVITSTTVILEPSTGAFDPIHHTTLIYENTNRLNHMGSDYFSLVNPWYHAPTIPGLTGFHEYSYSLAFNEIDPMGSTNYGKLTNISIVPTASPAAKVGAAGTGPAGSGQNFPQTFEFIVTALNNNIIRISGGALGFPVL
cryo-EM structure
  stoichiometry N: 3
